The nature of the series: amyloid nucleation score (Sup35N fusion, yeast selection) (log enrichment); library NNK1; higher = more nucleation; inactive = no reads after selection. Put shortly:
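Nucleation score: DiMSum log enrichment of output over input reads, centred on the mode score of non-aggregating sequences. Only sequences with at least 100 input reads were kept. Reads came from Illumina sequencing of plasmid inserts before and after 7 days of growth at 30°C without adenine and uracil, in psi-negative yeast expressing Sup35N fused to peptides of 20 random codons after 24 hours of induction with 100 μM copper sulfate.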

± gives the uncertainty stated by the source.

The substance YGINMWRYLGNQEEATIVFL had an amyloid nucleation score of 0.244 ± 0.3.

SLRCVPVVSMRVRSDSSLYK gave an amyloid nucleation score of 0.529 ± 0.9.

For HIAHTEPGAIWV, the amyloid nucleation score entry is “inactive”.

For FYYGSVSLSWF, the amyloid nucleation score result is “inactive”.

Take MVVFMYVST: the amyloid nucleation score came out at 0.289 ± 0.39.

NGVVLLFFSDSADMRLCAAM showed an amyloid nucleation score of 0.319 ± 0.58.

In the case of TRTRLEHNSVRKFWEL, the amyloid nucleation score result is “inactive”.

FYIVCRNFKTYLPSLGF: the amyloid nucleation score was -1.12 ± 2.4.

Consider TAVVENCLPIWVVYSSKMY, for which the amyloid nucleation score is 0.018 ± 0.6.

Regarding NLEWGLYISTANCPRNYDKA, the amyloid nucleation score entry was “inactive”.

RPLVRQPGEDYIFGLSSMCL came in with an amyloid nucleation score of -0.203 ± 0.49.

Substance DVFHTLIRSRLDFFFYKRER came in with an amyloid nucleation score of 0.14 ± 0.4.

RVFLQTGWVCGVRHANNRLR returned an amyloid nucleation score of -0.006 ± 0.87.

Consider SLRWSQSPFYFVTSIGRQGG, for which the amyloid nucleation score worked out at 0.585 ± 0.55.

Turning to FRSLSSGIFGACWWYMFYSM, the amyloid nucleation score is 0.229 ± 0.6.

With LGTIVVSSVGKLGIIMTRAE, the amyloid nucleation score is 1.3 ± 0.15.

IVYLSCFVRCP registered an amyloid nucleation score of 0.379 ± 0.56.

For the substance SKWLIRGCL, the amyloid nucleation score was 1.6 ± 0.21.

The substance RDTICITL returned an amyloid nucleation score of 0.311 ± 0.82.

LIFVNVSGL returned an amyloid nucleation score of 6.406 ± 0.054.

Turning to FYTISFLAIIATENIFCSSS, the amyloid nucleation score was 4.42 ± 0.053.

Consider TRRYWV, for which the amyloid nucleation score is -0.679 ± 0.32.

Take VKVCMGLGYSGLMLGGLWDS: the amyloid nucleation score was -0.491 ± 1.9.

As for HEGMLPIDVLRHSRPRQPFV, the amyloid nucleation score is -0.686 ± 0.83.

Substance SVKSIRCLCSVVEYKETGHR showed an amyloid nucleation score of 0.438 ± 0.34.

The substance SKHRSIYFIPLSHVESVVVW had an amyloid nucleation score of -0.192 ± 1.1.

VYQVNVGCWSCGCRTVICNR gave an amyloid nucleation score of 7.932 ± 0.045.

Substance DSCLEGM registered an amyloid nucleation score of 1.5 ± 0.66.

ALCLKGSMNVEFMIRTSGFN displayed an amyloid nucleation score of 0.705 ± 0.51.

As for SKTSEGLLLYVISYRNYYGP, the amyloid nucleation score was 0.671 ± 0.4.

In turn, IDNTLIIDFLFLCNVRTFLR returned an amyloid nucleation score of -0.162 ± 0.24.

Substance KSVPRKVFGAILDFLDLQLM yielded an amyloid nucleation score of 0.979 ± 0.73.

The substance GPRFNVALES gave an amyloid nucleation score of -0.347 ± 0.38.

For the substance LNYFLLLMFQCDGRILFRFY, the amyloid nucleation score stood at 0.652 ± 0.84.

Take WFCVHKTVSLDMASVDRKGQ: the amyloid nucleation score amounted to 4.8 ± 0.088.

The substance VITFITSL had an amyloid nucleation score of 3.85 ± 0.064.

With LFHGCLVGLSMRKVKKKNPA, the amyloid nucleation score is 0.277 ± 0.28.

Turning to GFTDYNRVRYKVLTVVFDYG, the amyloid nucleation score was -1.51 ± 0.95.

AFGMSLGG had an amyloid nucleation score of 0.225 ± 0.65.

With RYICSYCYALCGFGDYYGGK, the amyloid nucleation score amounted to 0.24 ± 0.34.

Regarding LGWVYLHMWLGTIYYLFFVI, the amyloid nucleation score was -1.14 ± 1.

In turn, VMLMCYPLTRPRCGTERNMF came in with an amyloid nucleation score of 0.091 ± 0.49.

For the substance RPMTVSKEAAKSDGCQKLNT, the amyloid nucleation score was -0.634 ± 0.48.

AGYVWAKSSKDVKFYVLDM yielded an amyloid nucleation score of 2.85 ± 0.17.

As to YFSVYSRHRSIWTCGIVYSK, the amyloid nucleation score was found to be 0.078 ± 0.49.

As for HNQDSCIFGQYSDNEVNASV, the amyloid nucleation score is -1.47 ± 1.6.

Turning to IKRKSAESNGCSLYLYDSLK, the amyloid nucleation score is -0.189 ± 0.43.

For the substance GFWQLFLRVIPLFSVGYSNC, the amyloid nucleation score came to 0.875 ± 0.69.

The substance RCCGLYVSLWIS registered an amyloid nucleation score of 0.425 ± 0.6.

Substance TNFYAVFLLLGGSGF gave an amyloid nucleation score of 7.171 ± 0.051.

HLILRTLWYKYLREKFSE gave an amyloid nucleation score of -0.286 ± 0.3.

Substance WIYRFPHKMHVIEDVRSVN gave an amyloid nucleation score of 0.894 ± 0.58.

YPLTSHYLLTR: the amyloid nucleation score is 0.038 ± 0.64.

The substance WENTSRKYVAANDCARMRLG came in with an amyloid nucleation score of -0.281 ± 0.41.

In turn, NKRTLLVVY had an amyloid nucleation score of -1.19 ± 0.81.

Regarding NKYVVETDH, the amyloid nucleation score was -0.604 ± 1.1.

YDRMRTSIVRACERNLSDMH had an amyloid nucleation score of 0.786 ± 0.35.

(Values after the supplement of paper PMC12042874.)
